B1: 5mer-1134 (peptide)
peptide: RTCKR
B2: 5mer-835 (peptide)
peptide: RFMMR
B3: 5mer-1135 (peptide)
peptide: RHTAR
B4: 5mer-836 (peptide)
peptide: REWNR
B5: 5mer-1136 (peptide)
peptide: KNSAR
B6: 5mer-837 (peptide)
peptide: RPMDR
B7: 5mer-1137 (peptide)
peptide: KEEEK
B8: 5mer-838 (peptide)
peptide: RHSMK
B9: 5mer-1138 (peptide)
peptide: RENHK
B10: 5mer-839 (peptide)
peptide: RHHDK
B11: 5mer-1139 (peptide)
peptide: KHCWK
B12: 5mer-840 (peptide)
peptide: KDTAR
B13: 5mer-1140 (peptide)
peptide: RNEFK
B14: 5mer-841 (peptide)
peptide: KNEMR
B15: 5mer-1141 (peptide)
peptide: REEVR
B16: 5mer-842 (peptide)
peptide: RHNVK
B17: 5mer-1142 (peptide)
peptide: KTENK
B18: 5mer-843 (peptide)
peptide: KTTPK
B19: 5mer-1143 (peptide)
peptide: RATGK
B20: 5mer-844 (peptide)
peptide: KTDPR
B21: 5mer-1144 (peptide)
peptide: KAKNR
B22: 5mer-845 (peptide)
peptide: RYEDR
B23: 5mer-1145 (peptide)
peptide: RMPAK
B24: 5mer-846 (peptide)
peptide: RPDWR
B25: 5mer-1146 (peptide)
peptide: KPHGR
B26: 5mer-847 (peptide)
peptide: KAPEK
B27: 5mer-1147 (peptide)
peptide: RDTGK
B28: 5mer-848 (peptide)
peptide: RYMVK
B29: 5mer-1148 (peptide)
peptide: RDWFR
B30: 6mer-1-202 (peptide)
peptide: RRQLTK
B31: 6mer-1-203 (peptide)
peptide: RRQITR

Target: acetylcholine receptor
Assay: SPR, AchR immobilised on chip, peptide 10 uM

Binder | Binding affinity (RU)
B1 | 26
B2 | 14
B3 | 17
B4 | 15
B5 | 25
B6 | 28
B7 | 22
B8 | 13
B9 | 24
B10 | 26
B11 | 28
B12 | 11
B13 | 28
B14 | 22
B15 | 26
B16 | 20

Binder | Binding affinity (RU)
B17 | 24
B18 | 17
B19 | 19
B20 | 32
B21 | 33
B22 | 15
B23 | 25
B24 | 32
B25 | 23
B26 | 28
B27 | 16
B28 | 12
B29 | 24
B30 | 154
B31 | 142
